This note sets out measurements from publication PMC3857619 (2013).

This test addresses recombinant PTB (Homo sapiens (Human), UniProt P26599). The test can be described thus: in vitro co-IP (anti-PTB) with western blot.

Sequence of recombinant PTB (P26599 whole entry): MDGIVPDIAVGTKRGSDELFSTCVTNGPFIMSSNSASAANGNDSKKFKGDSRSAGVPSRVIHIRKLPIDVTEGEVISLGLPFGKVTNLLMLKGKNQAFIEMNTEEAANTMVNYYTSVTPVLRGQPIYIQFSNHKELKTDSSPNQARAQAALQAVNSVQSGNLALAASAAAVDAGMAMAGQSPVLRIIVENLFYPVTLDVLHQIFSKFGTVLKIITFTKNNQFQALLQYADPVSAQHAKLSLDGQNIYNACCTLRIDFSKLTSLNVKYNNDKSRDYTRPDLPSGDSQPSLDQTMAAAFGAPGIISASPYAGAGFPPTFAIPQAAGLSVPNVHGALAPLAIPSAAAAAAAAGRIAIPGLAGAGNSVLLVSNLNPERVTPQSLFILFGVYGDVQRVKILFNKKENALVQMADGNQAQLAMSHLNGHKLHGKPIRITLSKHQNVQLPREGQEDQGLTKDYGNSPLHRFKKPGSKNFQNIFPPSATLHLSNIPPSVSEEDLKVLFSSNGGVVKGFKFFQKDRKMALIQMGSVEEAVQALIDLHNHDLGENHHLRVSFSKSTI

B1: recombinant hnRNPA1 (protein)
chain: MSKSESPKEPEQLRKLFIGGLSFETTDESLRSHFEQWGTLTDCVVMRDPNTKRSRGFGFVTYATVEEVDAAMNARPHKVDGRVVEPKRAVSREDSQRPGAHLTVKKIFVGGIKEDTEEHHLRDYFEQYGKIEVIEIMTDRGSGKKRGFAFVTFDDHDSVDKIVIQKYHTVNGHNCEVRKALSKQEMASASSSQRGRSGSGNFGGGRGGGFGGNDNFGRGGNFSGRGGFGGSRGGGGYGGSGDGYNGFGNDGGYGGGGPGYSGGSRGYGSGGQGYGNQGSGYGGSGSYDSYNNGGGGGFGGGSGSNFGGGGSYNDFGNYNNQSSNFGPMKGGNFGGRSSGPYGGGGQYFAKPRNQGGYGGSSSSSSYGSGRRF
With B1, the binding result is reported as “binds”.
